Data: a protein production outcome set (Wang et al. 2014)

Experiment: label from the status in PepcDB records
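Note: failed if final PepcDB status was selected cloned or expressed and not failed if soluble or beyond.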

Sequence	protein production
MIKGNKMASFSQVSFSIPQRVIHWAMALLIFFNLLFPDAMAHAYRLMRRGETLTPDQISSANIHAYVGFAILLLAVLRLCLRFFQGVPPHPAEEPRASQIAAKAAHFTFYVLFFILPLSGIAAYYFGIATAGELHSGPFKAVMWVLIAGHVAAVLVHQFYWRTNVLKRMTHG	failed
MIKGNNGNRGSSSSGYSADLLVCFPSRTHLALTPKPICSPSRPSDSSTNRRPHHRRQLSKLSGGGGGGHGSPVLWAKQASSKNMGGDEIAEPTSPKVTCAGQIKVRPSKCGGRGKNWQSVMEEIERIHDNRSQSKFFGLKKDVMGFLTCLRNIKFDFRCFGDFRHADVTSDDDEEEDDDDDEEEEVVEGEEEENSKTVFSKWFMVLQEEQNNKDDDKNNNKCDEKRDLEDTETEPAVPPPNALLLMRCRSAPAKSWLEERMKVKTEQEKREEQKEEKETEDQETSMKTKKKDLRSLMEEEKMELVLMRYDTEFYRLSSDIAKETWVVGGIQDPLSRSRSWKN	failed
MIKHYLFMAVSQVFFSFFLVLFFISSIVLLISIASVTLVIKVSFLDLVQLFLYSLPGTIFFILPITFFAACALGLSRLSYDHELLVFFSLGVSPKKMTKVFAPLSLLVSAILLVFSLILIPTSKSTYYGFLRQKKDKIDINIRAGEFGQKLGDWLVYVDKTKNNSYDNLVLFSNKSLSQESFILAQKGNINNQNGVFELNLYNGHAYFTQGDKMRKVDFEELHLRNKLKSFNSNDAAYLQGTDYLGYWKKAFGKNANKNQKRRFSQAILVSLFPLASVFLIPLFGIANPRFKTNWSYFYVLGAVGVYFLMVHVISTDLFLMTFFFPFIWAFASYLLFRKFILKRY	failed
MIKILETESSLGWGGQENRTARLINHLDPTRFRVYVATPKDSELYKRRQEIRAEFFPVEMRKSYSLKAIWQLYKIIKKERIDIVSTHSGKDAWLGVIAARLAGVKAIRTRHLQTPISSPLSYNLHDKVVCVSDFVKEDLAKRGVQKGRLCTIHTGVDVSKYAPHREGILRRELGLREEEILVGIVAVLRGAKGHKLLLEAFAKLSSSTARLVIIGDGPQRENIALIVEQLNLQERVVMLGHREDVAKIMPDLDIFVLSSSMEALGTAILEASACGVAVLGSNVGGIPECVRENGQLFEAGDSDSLVKNLQALINDTSKRKERGAKGRVLVEEEFSVEAMVRKTEGLYREIITPQKILIVSNTALGDTILSTPLFRETRLALPKAHITALLNPVNAMLFETNPYLDKIELYGGRWRGFLGAWWKLWRRGFDVALLGHSNDPQITPLCLLLGISKIIKIPNHKNPWQRFHHNPPASPIEDQYAVLTRLLTLKYIGIESSNTRLELFLKEEWTTEAKEILRPFGQKKLIGIQMGASNRSRQWFVERWIELAKRIIERDEEVVIVFVGSKNELEEISLVAQALPQDRVFISAGRLSLGAAAALIGELGLLFTPDTGPLHIAVALRVKTISLFAVANPKNSLPDYDQSLHRYIKVDRCCEPCVGKRCAYQKCMEAIGVDEVYEEYKKLQE	failed
MIKLSSITAHILDIWHRRNSRSYIAHLRSLGIRIGDGCIFRDPLTTRIDVSRPALVSIGSNVDMNTYFQILTHDWASFVFRNKYHDFVNSSGRVEIGSNIYIGTNVIVLRGVTIGDNCVIGAGSVVTHDIPANSVAVGAPCRVVCSLEHHHHHH	not failed
MIKMIVVLRLGHRPERDKRVTTHVALTARAFGADGIIIASEEDEKVKESVEDVVKRWGGPFFIEFNRNWRKVMKEFTGVKVHLTMYGLHVDDVIEELKEKLKKGEDFMIIVGAEKVPREVYELADYNVAIGNQPHSEVAALAVLLDRLLEGKGLKKEFKGAKIKIVPQARGKKVVEVQGYAEQDKAEGKATPGKNWENSGFTGDNP	not failed
MIKPSNYQPPYTITPAIVNLVAEIGEIIGRYTVLAEQNLTPRLRRENRIRTIQASLAIENNTLTLEQVTAVIDGKRVLGHPREIQEVRNAFATYEAMEDWDASVEGDLLAAHELLMRGLVDETGRYRSGGVGIFRGEQLVHMAPPADRVPKLMADLLDWLENTNEHPLVASCIFHYEFEFIHPFADGNGRMGRLWQTLILRNWKPLLAYLPVETVIRDRQEDYYRVLAVADSQADATPFVEFMLGALRDAVREAVSTDHVGDQVTDQVAALIRAIGGGELSSNDLMQALGLSHRPTFRNNYLNPAMEDEWIERTQPDSPRSPTQRYRLTGKGQRWLQHHADE	not failed
